Measurements taken from patent US20210340231A1 (FAPON BIOTECH, published 2021).
Substitutions are numbered along the chain they refer to.

B1: Mutation 1 (antibody, V domains shown)
VH: EVQLQQSGAELVKPGASVKLSCTASGFNLKDYFMHWMKQRTEQGLDWIGRIDPEDAETRYAPEFQGKATITADTSSNTAYLQLSTLTSEDTAVYYCARYYSSYIPFVYWGQGTLVTASA
VL: DVVMTQTPLSLSVSLGDQASISCRSSQSIIYSNRHTYLHWYLQKPGQSPKLLIFQISNRFSGVPDRFSGSGSGTDFTLKINRVEAEDLGVYFCSQSTHLPFTFGSGTKLEIKR
notes: No residue numbers are printed, so each chain is built as FR1-CDR1-FR2-CDR2-FR3-CDR3-FR4-constant
B2: Mutation 2 (antibody, V domains shown)
VH: B1 VH with D31E, S101T
VL: B1 VL
notes: built as for Mutation 1
B3: Mutation 3 (antibody, V domains shown)
VH: B1 VH with D31E, S101T
VL: B1 VL with N58Q
notes: built as for Mutation 1
B4: Mutation 5 (antibody, V domains shown)
VH: B1 VH with D52E
VL: B1 VL with R34K, N58Q, Q95N
notes: built as for Mutation 1
B5: Mutation 4 (antibody, V domains shown)
VH: B1 VH with D52E
VL: B1 VL with R34K, Q95N
notes: built as for Mutation 1
B6: WT 1-50 (antibody, V domains shown)
VH: B1 VH with D31E, F33Y, D52E, A56G, S101T, I104L
VL: B1 VL with I29L, R34K, I56L, N58Q, Q95N, F101Y
notes: Built as for Mutation 1
B7: WT 1-29 (antibody, V domains shown)
VH: B1 VH with D31E, F33Y, D52E, A56G, R59K, S101T, I104V
VL: B1 VL with I29L, I30L, R34K, I56V, N58Q, Q95N, F101Y
notes: built as for Mutation 1
B8: WT 1-14 (antibody, V domains shown)
VH: B1 VH with L29I, D31E, D52E, R59K, S101T
VL: B1 VL with I29L, I30L, R34K, N58Q, Q95N, L99I
notes: built as for Mutation 1
B9: WT 1-3 (antibody, V domains shown)
VH: B1 VH with L29I, D31E, F33Y, D52E, A56G, R59K, S101T, I104L
VL: B1 VL with I29L, I30L, R34K, I56L, N58Q, Q95N, L99I, F101Y
notes: built as for Mutation 1
B10: Mutation 1-14 (antibody, V domains shown)
VH: B1 VH with L29I, R59K
VL: B1 VL with I29L, I30L, L99I
notes: built as for Mutation 1
B11: Mutation 1-18 (antibody, V domains shown)
VH: B1 VH with L29I, R59K
VL: B1 VL with I30L
notes: built as for Mutation 1
B12: Mutation 1-31 (antibody, V domains shown)
VH: B1 VH with L29I, F33Y, R59K, I104V
VL: B1 VL with I30L, I56V, L99I, F101Y
notes: built as for Mutation 1
B13: Mutation 1-6 (antibody, V domains shown)
VH: B1 VH with L29I, A56G, R59K, I104V
VL: B1 VL with I30L, I56V, L99I, F101Y
notes: built as for Mutation 1
B14: Mutation 1-24 (antibody, V domains shown)
VH: B1 VH with I104V
VL: B1 VL with I29L, I30L, I56V, L99I
notes: built as for Mutation 1
B15: Mutation 1-11 (antibody, V domains shown)
VH: B1 VH with L29I, F33Y, R59K, I104V
VL: B1 VL with I30L, I56V, L99I
notes: built as for Mutation 1
B16: Mutation 1-52 (antibody, V domains shown)
VH: B1 VH with L29I, I104V
VL: B1 VL with I29L, I30L, I56V
notes: built as for Mutation 1
B17: Mutation 1-4 (antibody, V domains shown)
VH: B1 VH with R59K, I104V
VL: B1 VL with I29L, I30L, I56V
notes: built as for Mutation 1
B18: Mutation 1-23 (antibody, V domains shown)
VH: B1 VH with L29I, F33Y, A56G, R59K
VL: B1 VL with I30L, L99I, F101Y
notes: built as for Mutation 1
B19: Mutation 1-34 (antibody, V domains shown)
VH: B1 VH with L29I, A56G, R59K
VL: B1 VL with I29L, I30L, L99I, F101Y
notes: built as for Mutation 1
B20: Mutation 1-50 (antibody, V domains shown)
VH: B1 VH with R59K
VL: B1 VL with I30L, L99I
notes: built as for Mutation 1
B21: Mutation 1-37 (antibody, V domains shown)
VH: B1 VH with L29I, A56G, R59K, I104V
VL: B1 VL with I30L, I56V, F101Y
notes: built as for Mutation 1
B22: Mutation 1-38 (antibody, V domains shown)
VH: B1 VH with L29I, F33Y, R59K
VL: B1 VL with I29L, L99I
notes: built as for Mutation 1
B23: Mutation 1-44 (antibody, V domains shown)
VH: B1 VH with L29I, R59K, I104L
VL: B1 VL with I30L, I56L
notes: built as for Mutation 1
B24: Mutation 1-53 (antibody, V domains shown)
VH: B1 VH with L29I, F33Y, R59K, I104L
VL: B1 VL with I56L, L99I, F101Y
notes: built as for Mutation 1

molecular target: T1, CTNI quality control recombinant protein (PK2-CTNI-1, 170120, produced by the applicant) (human, UniProt P19429 2-210, limits assumed); assay: indirect ELISA, cTnI coated 1 ug/ml, antibody 0.32 ug/ml
T1 construct: also called cardiac troponin I
T1 sequence (P19429 2-210 limits assumed): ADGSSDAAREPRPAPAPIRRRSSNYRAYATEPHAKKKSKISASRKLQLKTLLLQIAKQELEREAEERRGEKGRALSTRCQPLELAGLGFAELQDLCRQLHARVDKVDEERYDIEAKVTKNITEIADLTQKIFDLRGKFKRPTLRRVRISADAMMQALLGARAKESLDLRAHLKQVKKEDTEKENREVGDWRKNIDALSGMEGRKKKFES
Protocol: (§1) The cTnI quality control after diluted to 1 μg/ml with the coating solution was used for microplate coating at 100 uL per well and left at 4° C. overnight. The next day, the microplate was washed twice with the wash solution and tapped for drying. The blocking solution (20% BSA+80% PBS) was added at 120 μL per well and left for 1 h at 37° C., and the microplate was tapped for drying. The diluted cTn monoclonal antibody was added at 100 μL per well and left for 30 min at 37° C.; then the microplate was washed 5 times with the wash solution and tapped for drying. The goat anti-mouse IgG-HRP was added at 100 μL per well and left for 30 min at 37° C.; then the microplate was washed 5 times with the wash solution and tapped for drying. Colour-developing solution A was added at 50 μL per well, followed by colour-developing solution B at 50 μL per well; the mixed solution was left for 10 min; and stopping solution was added at 50 μL per well. The OD value was read out at 450 nm (reference at 630 nm) on the microplate reader.

Row | OD 450 nm (reference 630 nm) | Binder
1 | 0.341 OD | B1
2 | 0.233 OD | B2
3 | 0.301 OD | B3
4 | 0.189 OD | B4
5 | 0.314 OD | B5

molecular target: T1, CTNI quality control recombinant …; assay: indirect ELISA, cTnI coated 1 ug/ml, antibody 0 ug/ml (blank)
Protocol: as §1

Row | OD 450 nm (reference 630 nm) | Binder
6 | 0.032 OD | B1
7 | 0.04 OD | B2
8 | 0.028 OD | B3
9 | 0.042 OD | B4
10 | 0.03 OD | B5

molecular target: T1, CTNI quality control recombinant …; assay: AMC sensor kinetics, antibody captured, cTnI analyte

Row | Kd | koff | kon | Binder
11 | 0.702 nM | 0.000489 s⁻¹ | 696000 M⁻¹ s⁻¹ | B6
12 | 1.23 nM | 0.00011 s⁻¹ | 89600 M⁻¹ s⁻¹ | B7
13 | 0.749 nM | 0.000398 s⁻¹ | 532000 M⁻¹ s⁻¹ | B8
14 | 0.549 nM | 0.000348 s⁻¹ | 633000 M⁻¹ s⁻¹ | B9

molecular target: T1, CTNI quality control recombinant …; assay: indirect ELISA, cTnI coated 1 ug/ml, antibody 8 ug/ml
Protocol: as §1

Row | OD 450 nm (reference 630 nm) | Binder
15 | 2.07 OD | B1
16 | 1.8 OD | B2
17 | 1.86 OD | B3
18 | 1.69 OD | B4
19 | 1.75 OD | B5

molecular target: T1, CTNI quality control recombinant …; assay: indirect ELISA, cTnI coated 1 ug/ml, antibody 1000 ug/ml
Protocol: as §1

Row | OD 450 nm (reference 630 nm) | Binder
20 | 2.4 OD | B1
21 | 2.38 OD | B2
22 | 2.35 OD | B3
23 | 2.2 OD | B4
24 | 2.22 OD | B5

molecular target: T1, CTNI quality control recombinant …; assay: indirect ELISA, cTnI coated 1 ug/ml, antibody 40 ug/ml
Protocol: as §1

Row | OD 450 nm (reference 630 nm) | Binder
25 | 2.35 OD | B1
26 | 2.3 OD | B2
27 | 2.25 OD | B3
28 | 1.94 OD | B4
29 | 1.98 OD | B5

molecular target: T1, CTNI quality control recombinant …; assay: indirect ELISA, cTnI coated 1 ug/ml, antibody 1.6 ug/ml
Protocol: as §1

Row | OD 450 nm (reference 630 nm) | Binder
30 | 0.973 OD | B1
31 | 0.724 OD | B2
32 | 0.831 OD | B3
33 | 0.721 OD | B4
34 | 0.689 OD | B5

molecular target: T1, CTNI quality control recombinant …; assay: indirect ELISA, cTnI coated 1 ug/ml, antibody 200 ug/ml
Protocol: as §1

Row | OD 450 nm (reference 630 nm) | Binder
35 | 2.4 OD | B1
36 | 2.42 OD | B2
37 | 2.37 OD | B3
38 | 2.2 OD | B4
39 | 2.15 OD | B5

molecular target: T1, CTNI quality control recombinant …; assay: AMC sensor kinetics, antibody captured, cTnI analyte; remark: another data set of the same source
Protocol: Using the AMC sensor, the purified antibody was diluted with PBST to 10 μg/ml, and the CTNI quality control recombinant protein (PK2-CTNI-1, 170120, produced by the applicant) was serially diluted with PBST to 400 nmol/ml, 200 nmol/ml, 100 nmol/ml, 50 nmol/ml, 25 nmol/ml, 12.5 nmol/ml, 6.25 nmol/ml, and 0 nmol/ml.

Row | Kd | koff | kon | Binder
40 | 0.415 nM | 0.000279 s⁻¹ | 673000 M⁻¹ s⁻¹ | B10
41 | 0.68 nM | 0.000282 s⁻¹ | 415000 M⁻¹ s⁻¹ | B11
42 | 0.795 nM | 0.000301 s⁻¹ | 378000 M⁻¹ s⁻¹ | B12
43 | 0.734 nM | 0.000266 s⁻¹ | 362000 M⁻¹ s⁻¹ | B13
44 | 0.408 nM | 0.000259 s⁻¹ | 635000 M⁻¹ s⁻¹ | B14
45 | 0.606 nM | 0.000443 s⁻¹ | 731000 M⁻¹ s⁻¹ | B15
46 | 0.941 nM | 0.000229 s⁻¹ | 243000 M⁻¹ s⁻¹ | B16
47 | 0.963 nM | 0.00023 s⁻¹ | 239000 M⁻¹ s⁻¹ | B17
48 | 0.968 nM | 0.000673 s⁻¹ | 695000 M⁻¹ s⁻¹ | B18
49 | 1.41 nM | 0.000598 s⁻¹ | 424000 M⁻¹ s⁻¹ | B19
50 | 0.386 nM | 5.48e-05 s⁻¹ | 142000 M⁻¹ s⁻¹ | B20
51 | 0.667 nM | 0.000267 s⁻¹ | 400000 M⁻¹ s⁻¹ | B21
52 | 0.24 nM | 0.000103 s⁻¹ | 431000 M⁻¹ s⁻¹ | B22
53 | 0.865 nM | 0.000464 s⁻¹ | 537000 M⁻¹ s⁻¹ | B23
54 | 0.751 nM | 0.000155 s⁻¹ | 206000 M⁻¹ s⁻¹ | B1
55 | 0.721 nM | 0.000243 s⁻¹ | 337000 M⁻¹ s⁻¹ | B24
